Measured values: the supplement of paper PMC12855868

B1: library; numbered along this chain (parent)
chain: MAAAGGARLLRAASAVLGGPAGRWLHHAGSRAGSSGLLRNRGPGGSAEASRSLSVSARARSSSEDKITVHFINRDGETLTTKGKVGDSLLDVVVENNLDIDGFGACEGTLACSTCHLIFEDHIYEKLDAITDEENDMLDLAYGLTDRSRLGCQICLTKSMDNMTVRVPETVADARQSIDVGKTS

Variants of: B1
Assay: scaled log2 fold change in cell abundance, elesclomol vs control (0 = silent mean, 1 = nonsense mean) (scaled log2 ratio); higher = higher viability under elesclomol (loss of FDX1 cuproptosis function)
Details: glucose 10 mM
[1] = with ABC1 FDX1 KO, elesclomol 5 nM, 14 days
[2] = with HEK293T FDX1 KO, elesclomol 40 nM, 11 days
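Also: variant abundance is its share of total variant reads in each endpoint sample, from next-generation sequencing of the integrated ORF PCR-amplified out of genomic DNA.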

Row | Variant | scaled log2 fold change [1] | scaled log2 fold change [2]
1 | D173L | -0.299 | 0.205
2 | D173Q | 0.224 | 0.251
3 | D173K | 0.645 | 0.0902
4 | D173G | 0.473 | -0.138
5 | D173P | 0.0487 | 0.601
6 | D173C | -0.031 | 0.0714
7 | D173H | 0.000185 | -0.579
8 | D173F | 0.306 | -0.0815
9 | D173E | 0.188 | 1.27
10 | D173N | 0.304 | -0.47
11 | D173M | -0.417 | 0.0547
12 | D173A | 0.245 | 0.105
13 | V171Y | -0.342 | -0.405
14 | V171H | -0.198 | -0.163
15 | V171N | -0.524 | 0.216
16 | V171L | 0.231 | 0.229
17 | V171C | -0.178 | -0.0893
18 | V171R | -0.31 | -0.328
19 | V171F | 0.0552 | -0.419
20 | V171E | 0.182 | -0.192
21 | V171K | 4.83e-05 | -0.343
22 | V171T | -0.214 | -0.343
23 | V171Q | -0.00995 | 0.876
24 | V171M | 0.452 | 0.0122

Row | Variant | scaled log2 fold change [1] | scaled log2 fold change [2]
25 | V171P | 0.142 | 0.0269
26 | V171A | -0.586 | 0.229
27 | V171S | -0.0546 | 0.136
28 | V171D | -0.592 | -0.239
29 | V171I | -0.139 | 0.238
30 | V171W | 0.0569 | 0.292
31 | A172S | 0.42 | 0.922
32 | A172F | -0.0712 | 0.241
33 | A172L | -0.0445 | -0.675
34 | A172Q | 0.194 | 0.591
35 | A172N | -0.267 | -0.223
36 | A172T | -0.0186 | 1.1
37 | A172P | -0.333 | 0.355
38 | A172K | 0.212 | 
39 | A172H | -0.391 | 0.0671
40 | A172I | 0.216 | 1.09
41 | A172Y | 0.17 | 
42 | A172R | -0.163 | 0.124
43 | A172D | 0.0896 | 1.11
44 | A172V | 0.337 | -0.531
45 | A172W | 0.0817 | 0.744
46 | A172C | -0.253 | -0.168
47 | A172G | -0.0465 | 0.05
48 | A172E | 0.236 | 0.926

Row | Variant | scaled log2 fold change [1] | scaled log2 fold change [2]
49 | A172M | -0.557 | -0.421
50 | V167R | 0.264 | -0.286
51 | V167S | 0.152 | 0.0174
52 | V167P | 0.251 | -0.184
53 | V167N | 0.111 | -0.228
54 | V167M | 0.222 | -0.0856
55 | V167I | -0.468 | 0.138
56 | V167K | 0.318 | 0.00856
57 | V167Y | -0.0283 | 0.556
58 | V167L | -0.207 | -0.904
59 | V167W | 0.155 | -0.0986
60 | V167T | 0.214 | 0.998
61 | V167Q | 0.218 | 1.05
62 | T170K | 0.0703 | 0.727
63 | T170V | -0.0936 | -0.713
64 | T170G | 0.233 | -0.241
65 | T170I | -0.092 | 0.126
66 | T170Q | 0.241 | -0.893
67 | T170Y | 0.0553 | -0.221
68 | T170S | -0.088 | -0.432
69 | T170D | 0.239 | 
70 | T170F | 0.262 | 0.826
71 | T170H | -0.102 | -1.19
72 | T170C | 0.268 | -0.365

Row | Variant | scaled log2 fold change [1] | scaled log2 fold change [2]
73 | T170M | -0.185 | 
74 | T170P | -0.219 | 0.16
75 | T170A | -0.0897 | -0.0909
76 | T170W | -0.0505 | 0.993
77 | T170N | -0.0752 | 0.953
78 | T170L | -0.0824 | -0.244
79 | T170R | -0.159 | 
80 | T170E | 0.0373 | -0.644
81 | P168C | 0.163 | 0.254
82 | P168V | 0.143 | -0.0343
83 | P168H | 0.377 | 0.136
84 | P168L | 0.485 | 0.478
85 | P168T | 0.449 | -0.142
86 | P168A | 0.158 | -0.0417
87 | P168E | 0.408 | -0.105
88 | P168Y | 0.394 | -0.173
89 | P168I | -0.0742 | 0.61
90 | P168S | 0.106 | 0.443
91 | P168K | 0.508 | -0.335
92 | P168F | 0.153 | 0.798
93 | P168D | 0.403 | 1.03
94 | P168M | 0.157 | -0.366
95 | P168N | 0.157 | -0.31
96 | P168W | 0.463 | 0.286

Row | Variant | scaled log2 fold change [1] | scaled log2 fold change [2]
97 | P168R | 0.453 | 0.117
98 | P168Q | 0.259 | 0.667
99 | E169F | -0.455 | 0.0831
100 | E169K | -0.0829 | 1.04
101 | E169Q | -0.166 | 0.849
102 | E169W | -0.134 | 0.73
103 | E169H | 0.197 | 0.526
104 | E169T | -0.402 | -0.135
105 | E169P | -0.343 | 0.322
106 | E169Y | -0.0627 | -0.484
107 | E169V | -0.251 | 0.342
108 | E169L | -0.227 | -0.347
109 | E169G | -1.32 | 0.409
110 | E169R | 0.0391 | 0.411
111 | E169C | -0.223 | -0.0591
112 | E169I | -0.202 | -0.174
113 | E169N | -0.234 | 0.306
114 | E169D | -0.464 | 1.13
115 | E169M | -0.846 | 0.0592
116 | E169S | -1.11 | -0.0914
117 | E169A | 0.277 | -0.0328
